Assay results from publication PMC12443421.
Read-outs that look alike come from different tables or passages of the source.

How the values were obtained:
[1] = molecular target: acidic patch mutant (APM) H3K4me3 147 bp nucleosome (human) (UniProt P62807); test: native gel or EMSA; direct binding: 100 nM nucleosome and varying KDM5A; 50 mM HEPES pH 7.5, 50 mM KCl, 1 mM BME, 0.01% Tween-20, 0.01% BSA, 5% sucrose; 1 h on ice; gel at 4 C; SYBR gold; fit to specific binding with Hill slope
[2] = molecular target: acidic patch mutant (APM) unmodified 147 bp nucleosome (H2A E61A, E64S, N68A, D72S, N89A, D90A, E91S) (human) (UniProt P62807); test: as above
[3] = molecular target: acidic patch mutant (APM) H3K4me3 147 bp nucleosome (human) (UniProt P62807)
[4] = molecular target: acidic patch mutant (APM) unmodified 147 bp nucleosome (H2A E61A, E64S, N68A, D72S, N89A, D90A, E91S), P62807;Q71DI3;P62805; test: EMSA
[5] = molecular target: KDM5A^CAT (lysine demethylase 5A, residues 1-801) (UniProt P29375); test: EMSA

KDM5A^CAT (lysine demethylase 5A, residues 1-801) (from UniProt P29375 1-801) (domain or fragment), sequence (P29375 1-801): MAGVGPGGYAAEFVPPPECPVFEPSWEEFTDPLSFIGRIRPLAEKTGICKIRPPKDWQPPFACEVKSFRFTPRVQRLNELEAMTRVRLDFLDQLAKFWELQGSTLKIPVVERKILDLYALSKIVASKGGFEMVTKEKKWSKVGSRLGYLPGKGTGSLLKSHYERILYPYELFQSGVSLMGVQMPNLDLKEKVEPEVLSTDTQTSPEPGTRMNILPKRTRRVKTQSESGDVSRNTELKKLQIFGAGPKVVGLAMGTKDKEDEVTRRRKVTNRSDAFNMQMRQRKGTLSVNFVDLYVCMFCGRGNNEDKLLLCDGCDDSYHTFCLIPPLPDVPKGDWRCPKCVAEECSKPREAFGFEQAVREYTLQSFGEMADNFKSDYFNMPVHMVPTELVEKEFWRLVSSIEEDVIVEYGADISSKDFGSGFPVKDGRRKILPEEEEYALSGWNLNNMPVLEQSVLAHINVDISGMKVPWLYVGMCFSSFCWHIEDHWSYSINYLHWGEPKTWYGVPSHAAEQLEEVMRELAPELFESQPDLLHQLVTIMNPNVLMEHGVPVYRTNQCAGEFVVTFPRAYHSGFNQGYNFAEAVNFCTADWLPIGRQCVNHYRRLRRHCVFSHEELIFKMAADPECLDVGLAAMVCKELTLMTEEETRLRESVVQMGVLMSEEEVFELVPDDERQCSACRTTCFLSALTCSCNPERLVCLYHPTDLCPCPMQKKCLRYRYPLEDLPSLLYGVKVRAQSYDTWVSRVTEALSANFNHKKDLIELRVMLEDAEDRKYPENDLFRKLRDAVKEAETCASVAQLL

## KDM5A^CAT (lysine demethylase 5A, residues 1-801) (from UniProt P29375 1-801) (domain or fragment)
[1]
  fold lower affinity relative to the wild-type H3K4me3 nucleosome: 4 fold
[2]
  fold loss in affinity relative to the wild-type 147 bp nucleosome: 3 fold
[3]
  fold decrease in demethylation of H3K4me3 on APM 147 bp nucleosomes relative to wild-type nucleosomes, quantitative western blot, single turnover (5 uM KDM5A enzyme, 50 nM substrate, 50 mM KCl): 9 fold

## KDM5A^CAT (lysine demethylase 5A, residues 1-801) (from UniProt P29375) R210A; R217A; R219A; R220A; R232A; R264A; R265A; R266A; R271A; R280A; R282A
[4]
  Kd: 14 µM
[4]; 0-32 µM KDM5A^MutR titration
  Kd: 14 µM

## KDM5A^CAT (lysine demethylase 5A, residues 1-801) (from UniProt P29375) R217A; R219A; R220A
[4]
  Kd: 15 µM

## KDM5A^CAT (lysine demethylase 5A, residues 1-801) (from UniProt P29375) R264A; R265A; R266A; R271A
[4]
  Kd: 10.1 µM

## KDM5A^CAT (lysine demethylase 5A, residues 1-801) (from UniProt P29375) R280A; R282A
[4]
  Kd: 12 µM

## wild-type unmodified 147 bp nucleosome (nucleosome core particle) (from UniProt P04908;P62807;Q71DI3;P62805) H2A:E61A; H2A:E64S; H2A:N68A; H2A:D72S; H2A:N89A; H2A:D90A; H2A:E91S
[5]
  Kd: 12 µM
